Legend:
[1] = target: T1, MarR-5XS C47S;C51S;C54S;C108S;C111S (Escherichia coli MG1655) (UniProt P27245); experiment: EMSA; conditions: EMSA: 10 mM Tris, 50 mM KCl, 5% glycerin, pH 8.0, 25 C, 30 min, 20 nM probe, 15 uL; 6% native PAGE
T1 sequence: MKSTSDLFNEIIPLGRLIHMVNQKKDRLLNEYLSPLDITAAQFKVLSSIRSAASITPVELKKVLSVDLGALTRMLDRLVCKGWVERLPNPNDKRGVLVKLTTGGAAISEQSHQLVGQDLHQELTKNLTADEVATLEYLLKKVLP

[2] = target: T2, MarR (Escherichia coli MG1655) (UniProt P27245); experiment: EMSA; conditions: EMSA: 10 mM Tris, 50 mM KCl, 5% glycerin, pH 8.0, 25 C, 30 min, 20 nM probe, 15 uL; 6% native PAGE
T2 sequence: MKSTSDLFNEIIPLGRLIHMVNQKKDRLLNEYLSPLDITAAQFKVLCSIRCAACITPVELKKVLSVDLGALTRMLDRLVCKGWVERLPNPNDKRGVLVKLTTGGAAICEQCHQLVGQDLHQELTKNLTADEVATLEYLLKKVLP

P27245 = experiment: SEC; Superdex-200, 10 mM Tris-HCl pH 8.0, 100 mM NaCl; MarR-5XS (25 µM) after 400 µM H2Sn for 20 min; dimers to tetramer; mass calibrated with BSA (67 kDa) and T7 RNA polymerase (99 kDa)
[3] = target: the molecule itself; experiment: SEC; Superdex-200, 10 mM Tris-HCl pH 8.0, 100 mM NaCl; untreated MarR-5XS, 25 µM; monomers to dimer
[4] = target: the molecule itself; experiment: SEC; Superdex-200, 10 mM Tris-HCl pH 8.0, 100 mM NaCl; MarR-5XS (25 µM) after 400 µM H2Sn for 20 min; dimers to tetramer; mass calibrated with BSA (67 kDa) and T7 RNA polymerase (99 kDa)
[5] = target: the molecule itself; experiment: cross-linking; LC-MS/MS of tryptic peptides of MarR reacted with 10-fold H2Sn, anaerobic, room temperature, 30 min; free thiols blocked with iodoacetamide; disulfide- and trisulfide-linked Cys80 peptides identified

## CATCGCATTGAACAAAACTTGAACCGATTTAGCAAAACGTGGCATCGGTCAATTCATTCATTTGACTTATACTTGCCTGGGCAATATTATCCCCTGCAAC (double strand) [marRAB promoter EMSA probe]
[1]
  binding: binds
[2]
  binding: binds

B1: H2Sn-treated MarR-5XS (protein)
chain: MKSTSDLFNEIIPLGRLIHMVNQKKDRLLNEYLSPLDITAAQFKVLSSIRSAASITPVELKKVLSVDLGALTRMLDRLVCKGWVERLPNPNDKRGVLVKLTTGGAAISEQSHQLVGQDLHQELTKNLTADEVATLEYLLKKVLP
P27245
  percent of protein as dimer (SEC peak area): the dimer, tetramer, and multimer represented 37.4%, 54.1%, and 8.5%
  percent of protein as multimer (SEC peak area): the dimer, tetramer, and multimer represented 37.4%, 54.1%, and 8.5%
  percent of protein as tetramer (SEC peak area): the dimer, tetramer, and multimer represented 37.4%, 54.1%, and 8.5%

B2: MarR-5XS (untreated) (natural protein)
chain: MKSTSDLFNEIIPLGRLIHMVNQKKDRLLNEYLSPLDITAAQFKVLSSIRSAASITPVELKKVLSVDLGALTRMLDRLVCKGWVERLPNPNDKRGVLVKLTTGGAAISEQSHQLVGQDLHQELTKNLTADEVATLEYLLKKVLP
notes: Multiple antibiotic resistance regulator MarR of E. coli MG1655, gene b1530; primers run from the GTG start codon to the stop codon; all Cys except Cys80 changed to Ser; Made from pET30a; Primarily a dimer by SEC; also called MarR/5CS; MarR-5CS; source: E. coli BL21(DE3), purified (Ni-NTA, PD-10 desalting) under anaerobic conditions
[3]
  stoichiometry N: 2

B3: H2Sn-treated MarR-5XS (natural protein)
chain: MKSTSDLFNEIIPLGRLIHMVNQKKDRLLNEYLSPLDITAAQFKVLSSIRSAASITPVELKKVLSVDLGALTRMLDRLVCKGWVERLPNPNDKRGVLVKLTTGGAAISEQSHQLVGQDLHQELTKNLTADEVATLEYLLKKVLP
modifications: Cys80 disulfide between chains after H2Sn treatment (disulfide-stabilized tetramer)
notes: Multiple antibiotic resistance regulator MarR of E. coli MG1655, gene b1530; primers run from the GTG start codon to the stop codon; all Cys except Cys80 changed to Ser; treated with polysulfide (H2Sn); The treated sample is a mixture of dimer, tetramer and possibly multimers by SEC; the tetramer is the main species; The disulfide and trisulfide at Cys80 were identified by LC-MS/MS on treated …
[4]
  stoichiometry N: 4

B4: H2Sn-treated MarR (natural protein)
chain: MKSTSDLFNEIIPLGRLIHMVNQKKDRLLNEYLSPLDITAAQFKVLCSIRCAACITPVELKKVLSVDLGALTRMLDRLVCKGWVERLPNPNDKRGVLVKLTTGGAAICEQCHQLVGQDLHQELTKNLTADEVATLEYLLKKVLP
modifications: Cys80 linked to Cys80 of another chain by a disulfide (Cys80-Cys80) or trisulfide (Cys80-S-Cys80) bond
notes: Multiple antibiotic resistance regulator MarR of E. coli MG1655, gene b1530; primers run from the GTG start codon to the stop codon; treated with polysulfide (H2Sn); SEC was done only with MarR-5XS; The vector pET30a may add further residues between the His tag and MarR (surmised from the primer); also called pET30-MarR product; source: E. coli BL21, purified (Ni-NTA) in an anaerobic chamber, …
[5]
  binding result: binds

— PMC8614764, “Sulfane Sulfur Is a Strong Inducer of the Multiple Antibiotic Resistance Regulator MarR in Escherichia coli” (Antioxidants, 2021)
